Test results published in patent publication US20150284453A1, “METHOD OF PROTECTING CARDIAC FUNCTION” (Declmmune Therapeutics, Inc., priority 2012, published 2015).

B1: murine 21G6 mAb: murine anti-N2 monoclonal antibody from hybridoma ATCC Accession Number PTA-9393 (antibody, V domains shown)
VH: QVQLQQPGAELVKPGASVKLSCKASGYTFTSYYMYWVKQRPGQGLEWIGGINPSNGGTNFNEKFKSKATLTVDKSSSTAYMQLSSLTSEDSAVYYCTRWGYDREWFAYWGQGTLVTVSA
VL: DIVMTQAAPSVPVTPGESVSISCRSSKSLLHSNGNTYLYWFLQRPGQSPQVLIYRMSNLASGVPDRFSGSGSGTAFTLRISRVEAEDVGVYYCMQHLEYPFTFGSGTKLEIKR

Legend:
Format in all cases: in vivo
[1] = tested on: swine model of myocardial infarction; assay: Serum cardiac troponin-T (cTnT) levels, swine model of myocardial infarction; details: N2 4.6 mg/kg or m21G6 2 mg/kg i.v. prior to reperfusion; for reduction of peak serum cTnT levels as compared to saline controls: 8-120 h post-reperfusion; for reduction of cTnT AUC values as compared to saline controls: five day reperfusion period
Description: FIGS. 3A and 3B are plots showing the effect of N2 peptide and murine 21G6 mAb (m21G6) on serum cardiac troponin-T (cTnT) levels. Swine were subjected to 1 h LAD occlusion and 5 d reperfusion. Prior to reperfusion either saline, N2 (4.6 mg/kg), or m21G6 (2 mg/kg) was injected i.v. into the swine. Serum samples were taken at several time points as described in text and analyzed for cTnT. (A) Peak cTnT levels. (B) cTnT levels over 5d reperfusion. # represents p<0.05; ## represents p<0.01. Each symbol represents data from one animal. Cardiac troponin-T (cTnT), a well-established marker for cardiac tissue injury, from 8-120 h post-reperfusion, was also analyzed. […] Saline-treated animals developed approximately a 20% infarct of the left ventricle as assessed by TTC staining at 5d post-reperfusion as predicted • Serial EKGs to document ST elevation • Angiogram q20 min to confirm complete occlusion • Lidocaine and defibrillation as needed • Administration of control vs. N2 peptide 5 minutes prior to reperfusion or mAb 21G6 30 minutes before reperfusion • Measure trend in cardiac enzymes (CK, cTnT) • Cardiectomy on Day 5 or Day 21 via cardioplegic arrest • LAD ligation at site of occlusion followed by injection of Evans blue dye via aortic cannula gives estimate of Area At Risk (AAR) • Incubation of transverse sections in TTC for 15 min at 37° C. • Calculate % infarction by computerized planimetry • 21G6 Alexa 568(1 mg/ml) infusion was initiated 2 min prior to reperfusion at ≈1 m1/min for ≈30 min via coronary catheter (results shown in FIG. 1 showing localization of the antibody to the injured left ventricle and not to the uninjured right ventricle) • Heart was perfused with cardioplegic solution 1 h post-ischemia, harvested, sectioned, and punch biopsies taken in the area at risk and in right ventricle • Sections were stained with anti-swine CD31 FITC (Serotec) 1/20 dilution • Using a fluoroscopically guided balloon catheter approach, the left anterior descending coronary artery (LAD) was occluded for 60 min at a defined point distal to the 2nd and 3rd diagonal branches. Saline-treated animals developed approximately a 20% infarct of the left ventricle as assessed by TTC staining at 5d post-reperfusion as predicted.

[2] = tested on: swine model of myocardial infarction; assay: Myocardial infarct size by Evan's blue/TTC staining, swine model of myocardial infarction (1 h LAD occlusion, 5 d reperfusion); details: 5d post-reperfusion, TTC staining; i.v. N2 4.6 mg/kg 5 min or murine 21G6 mAb 2 mg/kg 30 min prior to reperfusion
Description: FIG. 2A to 2C are plots showing that N2 peptide and murine 21G6 mAb reduce infarct size in a swine model of myocardial infarction. Swine were subjected to 1 h LAD occlusion and 5 d reperfusion. Prior to reperfusion either saline, N2 (4.6 mg/kg), or murine 21G6 mAb (2 mg/kg) was injected i.v. into the swine. Following 5 d reperfusion, myocardial sections were stained with Evan's blue and TTC. (A) Myocardial infarct size expressed as a percentage of the left ventricle (LV). (B) Percentage of area at risk (AAR) to the LV. (C) Myocardial infarct size expressed as a percentage of the AAR. # represents p<0.05; ## represents p<0.01; ### represents p<0.001. Each symbol represents data from one animal. (Note: Due to poor perfusion with Evan's blue dye in one animal, n=5 in panels B and C). […] Saline-treated animals developed approximately a 20% infarct of the left ventricle as assessed by TTC staining at 5d post-reperfusion as predicted.

[3] = tested on: porcine model of myocardial infarction; assay: Cardiac function (LVEF, fractional shortening) by echocardiography, porcine model of myocardial infarction; details: for increase in EF compared to saline controls at the same time point: 21 days post-reperfusion, 3D TTE, n of 3 per group; for ejection fraction (EF) 21 d post-reperfusion: Quinones method; for ejection fraction (EF) 21 d post-reperfusion / LVEF at baseline: n=3/group; for recovery of cardiac function by fractional shortening (FS) compared to baseline: 21d reperfusion period; for LVEF at baseline: baseline (prior to occlusion procedure)
Text: FIG. 4A to 4C are graphs showing measurements of cardiac function by echocardiography. (A) Non-corrected % LVEF as measured by 2D TTE at 21d post-reperfusion compared to baseline using Quinones method (described below in the Examples section). (B) % LVEF as measured by 3D TTE at 21d post-reperfusion. (C) Fractional shortening as measured by 2D TTE at 21d post-reperfusion compared to baseline. # represents a p<0.05. n=3/group.
To determine the effect of N2 peptide and the 21G6 antibody treatment on cardiac function, echocardiography was employed. Echocardiography is widely accepted for evaluation of cardiac function and is utilized in emergency and operating rooms as well as intensive care departments in most hospitals. Ventricular function as assessed by echocardiography is accompanied by low intra-observer and inter-observer variability and assessment of left ventricular ejection fraction remains the standard of care in clinical practice. In addition, fractional shortening (FS), another measure of left ventricular function, was also calculated based on two-dimensional (2D) measurements at all time points measured at mid-ventricle and is defined as the difference between end-diastolic and end-systolic dimensions divided by end-diastolic dimension.
For animals in which functional data was generated (N2: n of 3, murine 21G6 mAb: n of 3, Saline: n of 3), cardiac imaging was performed via transthoracic echocardiography (TTE) at baseline (prior to occlusion procedure), and then up to 21d following reperfusion. For baseline TTE images were obtained using a high-frequency 2D probe and a Philips iE33 xMATRIX scanner (Andover, Mass.). Prior to sacrifice at 21 days, both 2D and 3D epicardial echocardiography images were obtained after median sternotomy was performed. 3D volumetric data sets were ECG-gated from 4-7 consecutive heartbeats. Additionally, 3D left ventricular volumes and ejection fractions were computed from the epicardial 3D datasets.
Prior to the occlusion procedure, a baseline TTE image was recorded. Afterwards, TTE was performed. Animals were treated in an identical manner as in the 5 day study for the catheterization procedure except that animals were maintained for an additional 16 days. The echocardiographer was blinded to the treatment schedule.
At baseline, saline, N2- and murine 21G6 mAb -treated animals had LVEFs of 53%, 52.6%, and 51%, respectively.
• Intravenous amiodarone infusion (1 mg/min) • Systemic heparinization (˜150 units/kg) • Percutaneously access of LAD via right (R) femoral artery • Occlusion mid-LAD with balloon catheter for 60 min as follows: Using a fluoroscopically guided balloon catheter approach, the left anterior descending coronary artery (LAD) was occluded for 60 min at a defined point distal to the 2nd and 3rd diagonal branches. […]

Molecule | reduction of peak serum cTnT levels as compared to saline controls [1] | reduction of cTnT AUC values as compared to saline controls [1] | reduction of infarct size as a percentage of the area at risk (AAR) [2] [%] | increase in EF compared to saline controls at the same time point [3] [%] | ejection fraction (EF) 21 d post-reperfusion ([3]; 2D TTE) [%] | recovery of cardiac function by fractional shortening (FS) compared to baseline ([3]; 2D TTE) [%] | LVEF at baseline ([3]; 2D TTE) [%] | recovery of cardiac function (LVEF at 21 d relative to baseline) ([3]; 21 d post-reperfusion vs baseline, 2D TTE, saline-treated 74.7%) [%]
LMKNMDPLNDNV [N2 peptide] | no effect | no effect | 31 | 29 | 52.0 | 98.8 | 52.6 | 
B1 | 60% | 47% | 49 | 21 | 50.4 | 99.4 | 51 | 98.8
